Literature values as cited in paper PMC3290099.

Target: CIB1 (Homo sapiens) (UniProt Q99828)
Sequence of UniProt Q99828 (Q99828 2-191): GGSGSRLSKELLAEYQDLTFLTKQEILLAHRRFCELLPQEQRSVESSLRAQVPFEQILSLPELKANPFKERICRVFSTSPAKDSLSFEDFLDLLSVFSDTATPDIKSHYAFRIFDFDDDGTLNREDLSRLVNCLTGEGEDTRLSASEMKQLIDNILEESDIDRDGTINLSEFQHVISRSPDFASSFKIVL

Kd: 1400 nM
Substance: Integrin αIIb (from UniProt P08514)
